Data on two compounds can be found in publication PMC5346638, “Azadiradione ameliorates polyglutamine expansion disease in Drosophila by potentiating DNA binding activity of heat shock factor 1” (Oncotarget, 2016).

Data set [1] concerns the target T1, heat shock factor 1 (HSF1) (Homo sapiens, UniProt Q00613).
T1 construct: purified full length HSF1, N-terminal his6 tag, expressed in E. coli
T1 sequence (Q00613 1-529): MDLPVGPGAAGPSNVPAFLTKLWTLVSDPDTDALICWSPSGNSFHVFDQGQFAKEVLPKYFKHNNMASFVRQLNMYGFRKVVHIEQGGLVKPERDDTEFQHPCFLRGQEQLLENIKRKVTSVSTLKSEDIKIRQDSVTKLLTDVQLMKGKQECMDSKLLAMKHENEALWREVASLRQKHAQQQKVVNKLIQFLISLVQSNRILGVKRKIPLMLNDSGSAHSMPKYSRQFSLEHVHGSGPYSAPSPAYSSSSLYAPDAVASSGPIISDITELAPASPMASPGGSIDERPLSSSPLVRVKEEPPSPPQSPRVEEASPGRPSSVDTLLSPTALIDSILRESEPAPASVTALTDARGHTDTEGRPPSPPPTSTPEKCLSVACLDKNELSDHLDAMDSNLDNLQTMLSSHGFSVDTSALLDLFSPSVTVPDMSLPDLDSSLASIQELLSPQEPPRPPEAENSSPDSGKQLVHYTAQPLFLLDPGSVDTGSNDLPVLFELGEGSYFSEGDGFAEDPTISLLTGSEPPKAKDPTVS
Briefly: intrinsic tryptophan fluorescence titration, Scatchard plot; supported by EMSA, CD, light scattering. It is filed as binding. (In general: In EMSA bound probe runs differently from free probe, usually more slowly.)

In data set [2] the test system is his6-HSF1 (codon-optimized) (Homo sapiens). Briefly: EMSA. As to conditions: Fluorescence: 2 uM HSF1, 0-10 uM HSE, room temperature, buffer not given; EMSA: 0.5 uM protein or 50 ug WCE, 1 ng 32P-HSE, buffer per cited reference, 4% PAGE.
For data set [3] the test system is unchanged. Briefly: tryptophan fluorescence quenching. To be noted: room temperature, Fluorescence: 2 uM HSF1, 0-10 uM HSE, buffer not given, EMSA: 0.5 uM protein or 50 ug WCE, 1 ng 32P-HSE, buffer per cited reference, 4% PAGE.

For orientation: Kd means a measure of binding affinity in units of concentration. A high value points to lower affinity. `CC(=O)O[C@@H]1C[C@H]2C(C)(C)C(=O)C=C[C@]2(C)[C@H]2CC[C@]3(C)C(=CC(=O)[C@H]3c3ccoc3)[C@@]21C` [AZD, azadiradione] displayed a Kd in data set [1] of 1.35 µM.
Regarding HSE (proximal HSE of hsp70A1A promoter), the binding signal (fold affinity increase with AZD) in data set [2] was greater than 2. Besides, the Kd in data set [3] (5 uM azadiradione) amounted to 0.35 µM; in data set [3] (no AZD), 0.8 µM.
